Tests used:
[1] = molecular target: IgG2 allotypes (anti-RhD); experiment: SPR
[2] = molecular target: IgG4 allotypes (anti-RhD); experiment: SPR

B1: human FcγRIa (his tag) (receptor)
chain: QVDTTKAVITLQPPWVSVFQEETVTLHCEVLHLPGSSSTQWFLNGTATQTSTPSYRITSASVNDSGEYRCQRGLSGRSDPIQLEIHRGWLLLQVSSRVFTEGEPLALRCHAWKDKLVYNVLYYRNGKAFKFFHWNSNLTILKTNISHNGTYHCSGMGKHRYTSAGISVTVKELFPAPVLNASVTSPLLEGNLVTLSCETKLLLQRPGLQLYFSFYMGSKTLRGRNTSSEYQILTARREDSGLYWCEAATEDGNVLKRSPELELQVLGLQLPTPVWFH
**Q.** B1 was tested. Which Kd [1] did it give?
**A.** > 1000 nM

B2: human FcγRIIa 131His, biotinylated (receptor)
chain: QAAAPPKAVLKLEPPWINVLQEDSVTLTCQGARSPESDSIQWFHNGNLIPTHTQPSYRFKANNNDSGEYTCQTGQTSLSDPVHLTVLSEWLVLQTPHLEFQEGETIMLRCHSWKDKPLVKVTFFQNGKSQKFSHLDPTFSIPQANHSHSGDYHCTGNIGYTLFSSKPVTITVQVPSMGSSSPMG
modifications: biotin
**Q.** For B2, which Kd [2] is on record?
**A.** > 1000 nM
